Measured values taken from PMC11210195.

Legend:
mAb1 YTE (human) = experiment: SPR; antibody Fc variants captured via CaptureSelect Human Fab-kappa ligand on a C1 chip (approx. 60 RU); PRYSPRY injected, five concentrations, two-fold series; 25°C, HBS-EP+ pH 7.4; 1:1 Langmuir fit
mAb1 HH (human) = experiment: as above
mAb1 WT-AAA (human) [1] = experiment: as above
Ustekinumab (human) = experiment: SPR; Biacore T200, C1 chip, 25 °C, HBS-EP+ (10 mM HEPES, 150 mM NaCl, 3 mM EDTA, 0.05% P20, pH 7.4); antibody Fc variants captured via anti-human Fab-kappa nanobody (about 60 RU), Fc only variants amine-coupled (60-80 RU), cytokine-Fc fusions captured via anti-PGLALA F(ab')2 (35-40 RU); PRYSPRY domain injected in five two-fold dilutions from 500, 1000 or 2000 nM; global fit, Langmuir 1:1, affinity mode
Chain of Ustekinumab (human) (heavy, as listed by the source, chain 1 of 2): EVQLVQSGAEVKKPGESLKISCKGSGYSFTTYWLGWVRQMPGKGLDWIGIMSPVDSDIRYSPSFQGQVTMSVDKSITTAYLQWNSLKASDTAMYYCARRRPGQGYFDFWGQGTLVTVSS
Chain of Ustekinumab (human) (light, as listed by the source, chain 2 of 2): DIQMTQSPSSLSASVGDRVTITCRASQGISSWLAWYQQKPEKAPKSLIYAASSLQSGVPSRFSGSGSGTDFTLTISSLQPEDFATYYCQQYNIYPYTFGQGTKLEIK

[2] = biological target: mAb1 HH (human IgG1, T307H, N434H) (human); experiment: as above
[3] = biological target: mAb1 YTE-AAA (asymmetrical human IgG1, one Fc heavy chain YTE, the other AAA) (human); experiment: as above
[4] = biological target: Fc WT (Fc-only variant, human IgG1 core hinge-CH2-CH3, wild type) (human); experiment: as above
[5] = biological target: mAb2 WT-AAA (asymmetrical human IgG1, one Fc heavy chain H310A, H433A, Y436A) (human); experiment: as above
[6] = biological target: mAb1 YTE (human IgG1, M252Y, S254T, T256E) (human); experiment: as above
[7] = biological target: mAb2 WT KiH (human IgG1, knob-into-hole, Fc wild type at the TRIM21 site) (human); experiment: as above
mAb1 WT-AAA (human) [8] = experiment: mass photometry; 200 nM mAb1 Fc variant pre-incubated with 4000 nM PRYSPRY domain, analysed at a 1:250 dilution; PBS pH 7.4, room temperature

Chain of TRIM21 PRYSPRY domain (P19474 277-475): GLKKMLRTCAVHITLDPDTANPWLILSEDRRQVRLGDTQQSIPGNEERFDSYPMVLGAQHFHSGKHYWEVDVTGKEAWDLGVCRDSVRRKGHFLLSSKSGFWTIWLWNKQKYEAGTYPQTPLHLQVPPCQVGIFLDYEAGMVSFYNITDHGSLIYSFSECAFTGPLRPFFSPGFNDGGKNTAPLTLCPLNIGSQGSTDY

TRIM21 PRYSPRY domain (from UniProt P19474-1 277-475) (domain or fragment)
fold decrease of affinity against mAb1 Fc WT (mAb1 YTE (human)): 1.7 fold | fold faster off rate against WT (mAb1 YTE (human)): 1.6 fold | fold decrease of affinity against mAb1 Fc WT (mAb1 HH (human)): 2.4 fold | fold faster off rate against WT (mAb1 HH (human)): 5 fold | fold faster on rate against WT (mAb1 HH (human)): 2 fold | Kd (mAb1 WT-AAA (human) [1]): 0.04 µM | stoichiometry N (mAb1 WT-AAA (human) [1]): 1 | Kd (Ustekinumab (human)): 0.0423 µM | koff (Ustekinumab (human)): 0.104 s⁻¹ | kon (Ustekinumab (human)): 2.46e+06 M⁻¹ s⁻¹ | Kd [2]: 0.101 µM | koff [2]: 0.477 s⁻¹ | kon [2]: 4.74e+06 M⁻¹ s⁻¹ | Kd [3]: 0.0926 µM | koff [3]: 0.189 s⁻¹ | kon [3]: 2.04e+06 M⁻¹ s⁻¹ | Kd [4]: 0.0651 µM | koff [4]: 0.102 s⁻¹ | kon [4]: 1.57e+06 M⁻¹ s⁻¹ | Kd [5]: 0.0385 µM | koff [5]: 0.0901 s⁻¹ | kon [5]: 2.34e+06 M⁻¹ s⁻¹ | Kd [6]: 0.0748 µM | koff [6]: 0.16 s⁻¹ | kon [6]: 2.14e+06 M⁻¹ s⁻¹ | Kd [7]: 0.0496 µM | koff [7]: 0.118 s⁻¹ | kon [7]: 2.38e+06 M⁻¹ s⁻¹ | stoichiometry N (mAb1 WT-AAA (human) [8]): 1
